The text below walks through data of patent US20240345090A1, “EARLY DETECTION OF INNATE IMMUNE DYSFUNCTION AND TREATMENT OF CONDITIONS ASSOCIATED THEREWITH” (UNIVERSITY OF FLORIDA RESEARCH FOUNDATION, INCORPORATED, priority 2021, published 2024).

The experiment has as its system CD14+ monocytes. Description: Flow cytometry count of TH+ monocytes after in vitro treatment. Type of experiment: cell-based, human. Conditions: healthy donor monocytes, 2 million per well, 4 hours; TPA 100 ng/ml, TNFα 17 ng/ml, IL6 17 ng/ml, XPro1595 50 ng/ml; n=3 per group. The protocol:
Monocytes were isolated from total PBMCs prepared as described above^51 using negative selection (Biolegend, 480048) per manufacturer's instructions. Total PBMCs were Fc-blocked to reduce nonspecific binding, followed by incubations with biotin-conjugated antibody cocktail containing antibodies against all subsets except CD14 (negative selection), followed by incubation with magnetic-Avidin beads, allowing all subsets other than CD14+ monocytes to be bound to the magnet. Monocyte purity/enrichment was routinely verified to confirm that the final cell population was greater than 95% pure CD14+ cells (FIG. S2). CD14+ monocytes were collected from the supernatant fraction, washed, counted and density adjusted such that 2 million CD14+ monocytes were seeded per well (FIG. 5A) and treated for 4 hours with vehicle, TPA (100 ng/ml, Biolegend, 755802)^7, TNFα (17 ng/mL, Biolegend, 570102)^61, XPro1595 (50 ng/ml), or IL6 (17 ng/mL) in an ultra-low-adherence 6-well plate (Corning, 3471) to prevent adherence. Suspended cells from each treatment group were aspirated and placed in a 15 ml conical tube, with any remaining adherent cells detached by incubation with 700 uL Accumax solution for 3 minutes (Innovative Cell Technologies, AM105) and added to suspended cells. […]
On the technique in general: Flow cytometry measures light scatter and fluorescence of single cells or particles in a stream.

B1: TPA: tissue plasminogen activator, positive control for increased monocyte TH expression (Biolegend, 755802) (protein, UniProt P00750 36-562, looked up)
Tissue-type plasminogen …: SYQVICRDEKTQMIYQQHQSWLRPVLRSNRVEYCWCNSGRAQCHSVPVKSCSEPRCFNGGTCQQALYFSDFVCQCPEGFAGKCCEIDTRATCYEDQGISYRGTWSTAESGAECTNWNSSALAQKPYSGRRPDAIRLGLGNHNYCRNPDRDSKPWCYVFKAGKYSSEFCSTPACSEGNSDCYFGNGSAYRGTHSLTESGASCLPWNSMILIGKVYTAQNPSAQALGLGKHNYCRNPDGDAKPWCHVLKNRRLTWEYCDVPSCSTCGLRQYSQPQFRIKGGLFADIASHPWQAAIFAKHRRSPGERFLCGGILISSCWILSAAHCFQERFPPHHLTVILGRTYRVVPGEEEQKFEVEKYIVHKEFDDDTYDNDIALLQLKSDSSRCAQESSVVRTVCLPPADLQLPDWTECELSGYGKHEALSPFYSERLKEAHVRLYPSSRCTSQHLLNRTVTDNMLCAGDTRSGGPQANLHDACQGDSGGPLVCLNDGRMTLVGIISWGLGCGQKDVPGVYTKVTNYLDWIRDNMRP
On to B1, for which the “number of TH+ monocytes, fold change relative to vehicle” value was “significant increases in TH-expressing monocytes relative to vehicle”.
